Assay results: patent US10766960 (dated 2020)
Changes are numbered by the printed parent chain. Numbers in names are those of the source. Where “and” joins values, the source holds several entries; their conditions need not be identical. Equal entries are not always repeated. Where two headings read alike, the source gives them in different places. Blank lines part the entries; values can stand above or below the binder they belong to.

Experiments:
Assay in all cases: SPR
FcgRIIIa F [1] = target: T1, FcgRIIIa F (human, UniProt P08637)
T1 sequence (P08637 17-208): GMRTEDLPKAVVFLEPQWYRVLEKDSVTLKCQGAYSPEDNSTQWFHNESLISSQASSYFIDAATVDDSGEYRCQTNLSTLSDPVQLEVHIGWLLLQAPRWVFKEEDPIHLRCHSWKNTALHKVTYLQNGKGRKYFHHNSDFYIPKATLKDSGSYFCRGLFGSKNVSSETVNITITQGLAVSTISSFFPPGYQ

FcgRIIa H [2] = target: T2, FcgRIIa H (human, UniProt P12318)
T2 chain: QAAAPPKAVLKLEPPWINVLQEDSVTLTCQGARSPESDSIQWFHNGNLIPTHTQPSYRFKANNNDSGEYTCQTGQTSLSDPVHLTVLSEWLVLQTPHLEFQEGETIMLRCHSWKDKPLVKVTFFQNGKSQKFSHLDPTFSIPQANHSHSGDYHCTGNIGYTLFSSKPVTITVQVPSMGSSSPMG

FcgRIIb [3] = target: T3, FcgRIIb (human, UniProt P31994)
T3 chain: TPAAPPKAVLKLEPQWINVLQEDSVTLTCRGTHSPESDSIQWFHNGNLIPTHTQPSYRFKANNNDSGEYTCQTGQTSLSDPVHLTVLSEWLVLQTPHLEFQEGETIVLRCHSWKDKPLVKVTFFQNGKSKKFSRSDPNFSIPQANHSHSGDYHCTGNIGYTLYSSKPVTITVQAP

FcgRIIIa V [4] = target: T4, FcgRIIIa V (human, UniProt P08637)
T4 sequence (P08637 17-208 F176V): as the sequence (P08637 17-208) above, with F160V counted along it

FcgRIIa H [5] = target: T2, FcgRIIa H
FcgRIIa R [6] = target: T5, FcgRIIa R (human, UniProt P12318)
T5 chain: T2 chain with H134R

FcgRIa [7] = target: T6, FcgRIa (human, UniProt P12314)
T6 chain: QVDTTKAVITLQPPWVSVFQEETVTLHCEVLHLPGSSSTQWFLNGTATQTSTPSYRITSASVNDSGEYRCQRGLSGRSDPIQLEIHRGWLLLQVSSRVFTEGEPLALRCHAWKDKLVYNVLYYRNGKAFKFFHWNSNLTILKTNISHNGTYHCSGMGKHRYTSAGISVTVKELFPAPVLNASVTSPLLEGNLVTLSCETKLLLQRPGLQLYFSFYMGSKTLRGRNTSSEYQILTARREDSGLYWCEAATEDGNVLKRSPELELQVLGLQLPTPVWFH

FcgRIIa R [8] = target: T5, FcgRIIa R
FcgRIIa R [9] = target: T5, FcgRIIa R
FcgRIIIa V [10] = target: T4, FcgRIIIa V; remark: listed apart in the source
FcgRIa [11] = target: T6, FcgRIa
FcgRIIIa V [12] = target: T4, FcgRIIIa V; remark: listed apart in the source
FcgRIIIa F [13] = target: T1, FcgRIIIa F; remark: listed apart in the source
FcgRIIb [14] = target: T3, FcgRIIb
FcgRIIa H [15] = target: T2, FcgRIIa H
FcgRIIb [16] = target: T3, FcgRIIb
FcgRIIIa F [17] = target: T1, FcgRIIIa F; remark: listed apart in the source
FcgRIa [18] = target: T6, FcgRIa
FcgRIa [19] = target: T6, FcgRIa
FcgRIIb [20] = target: T3, FcgRIIb
FcgRIIa H [21] = target: T2, FcgRIIa H
FcgRIIIa F [22] = target: T1, FcgRIIIa F; remark: listed apart in the source
FcgRIIa R [23] = target: T5, FcgRIIa R
FcgRIIIa V [24] = target: T4, FcgRIIIa V; remark: listed apart in the source
FcgRIIIa F [25] = target: T1, FcgRIIIa F; remark: listed apart in the source
FcgRIa [26] = target: T6, FcgRIa
FcgRIIb [27] = target: T3, FcgRIIb
FcgRIIa R [28] = target: T5, FcgRIIa R
FcgRIIIa V [29] = target: T4, FcgRIIIa V; remark: listed apart in the source
FcgRIIa H [30] = target: T2, FcgRIIa H
FcgRIa [31] = target: T6, FcgRIa
FcgRIIa H [32] = target: T2, FcgRIIa H
FcgRIIIa V [33] = target: T4, FcgRIIIa V; remark: listed apart in the source
FcgRIIb [34] = target: T3, FcgRIIb
FcgRIIIa F [35] = target: T1, FcgRIIIa F; remark: listed apart in the source
FcgRIIa R [36] = target: T5, FcgRIIa R

B1: H240-Kn120/H240-Hl068/L73-k0 (antibody)
chain 1: QDQLVQSGAEVKKPGASVKVSCKASGFNIKDTYIQWVRQAPGQGLEWMGRIDPLRKQTKYREKFEGRVTITADTSTNTAYMELSSLRSEDTAVYYCVRSGREFDYWGQGTLVTVSSASTKGPSVFPLAPSSKSTSGGTAALGCLVKDYFPEPVTVSWNSGALTSGVHTFPAVLQSSGLYSLSSVVTVPSSSLGTQTYICNVNHKPSNTKVDKKVEPKSCDKTHTCPPCPAPEYYWGPMVFLFPPKPKDTLMISRTPEVTCVVVDVSDEDPEVKFNWYVDGVEVHNAKTKPREEQYNATYRVVSVLTVLHQDWLNGKEYKCKVSNKDLPAPIEKTISKAKGQPREPQVCTLPPSRDELTKNQVSLWCLVKGFYPSDIAVEWESNGQPENNYKTTPPVLDSDGSFFLYSKLTVDKSRWQQGNVFSCSVMHEALHNHYTQKSLSLSP
chain 2: QDQLVQSGAEVKKPGASVKVSCKASGFNIKDTYIQWVRQAPGQGLEWMGRIDPLRKQTKYREKFEGRVTITADTSTNTAYMELSSLRSEDTAVYYCVRSGREFDYWGQGTLVTVSSASTKGPSVFPLAPSSKSTSGGTAALGCLVKDYFPEPVTVSWNSGALTSGVHTFPAVLQSSGLYSLSSVVTVPSSSLGTQTYICNVNHKPSNTKVDKKVEPKSCDKTHTCPPCPAPELLGGPSVFLFPPKPKDTLMISRTPEVTCVVVDVSHEEPEVKFNWYVDGVEVHNAKTKPREEQYNSTYRVVSVLTVLHQDWLNGKEYKCKVSNDALPKPIEETISKAKGQPREPQVYTLPPSRCELTKNQVSLSCAVKGFYPSDIAVEWESNGQPENNYKTTPPVLDSDGSFFLVSKLTVDKSRWQQGNVFSCSVMHEALHNHYTQKSLSLSP
chain 3: DIQMTQSPSSLSASVGDRVTITCRASQDIHKYIAWYQQKPGQAPRLLIQYTSTLQPGVPSRFSGSGSGTDYTFTISSLQPEDIATYYCLQYEQLRTFGGGTKVEIKRTVAAPSVFIFPPSDEQLKSGTASVVCLLNNFYPREAKVQWKVDNALQSGNSQESVTEQDSKDSTYSLSSTLTLSKADYEKHKVYACEVTHQGLSSPVTKSFNRGEC
Kd (FcgRIIIa F [1]): 2.4 nM
Kd (FcgRIIa H [2]): 59 nM
Kd (FcgRIIb [3]): 150 nM
Kd (FcgRIIIa V [4]): 0.66 nM
Kd (FcgRIIa H [5]): 44 nM
Kd (FcgRIIa R [6]): 23 nM
Kd (FcgRIa [7]): 0.37 nM
Kd (FcgRIIa R [8]): 20 nM
Kd (FcgRIIa R [9]): 17 nM
Kd (FcgRIIIa V [10]): 0.33 nM
Kd (FcgRIa [11]): 0.11 nM
Kd (FcgRIIIa V [12]): 0.36 nM
Kd (FcgRIIIa F [13]): 2.4 nM
Kd (FcgRIIb [14]): 150 nM
Kd (FcgRIIa H [15]): 41 nM
Kd (FcgRIIb [16]): 150 nM
Kd (FcgRIIIa F [17]): 2.2 nM
Kd (FcgRIa [18]): 0.16 nM

B3: H240-A5E/H240-B3E/L73-k0 (antibody)
chain 1: not shown
chain 2: not shown
chain 3: B1 chain 3
Kd (FcgRIIIa F [25]): 1600 nM
Kd (FcgRIa [26]): 0.61 nM
Kd (FcgRIIb [27]): 4300 nM
Kd (FcgRIIa R [28]): 940 nM
Kd (FcgRIIIa V [29]): 330 nM
Kd (FcgRIIa H [30]): 910 nM

B5: H240-AK072/H240-BH076/L73-k0 (antibody)
chain 1: B1 chain 1 with M238S, D269E, D326A, C348Y, D355K, L357M, W365T, H434R
chain 2: B1 chain 2 with K329M, C355E, L357M, S365T, A367L, V406Y, K438E
chain 3: B1 chain 3
Kd (FcgRIa [31]): 0.11 nM and 0.12 nM
Kd (FcgRIIa H [32]): 79 nM and 72 nM and 69 nM
Kd (FcgRIIIa F [25]): 3.7 nM
Kd (FcgRIa [26]): 0.24 nM
Kd (FcgRIIIa V [33]): 0.99 nM and 1.2 nM
Kd (FcgRIIb [27]): 2900 nM
Kd (FcgRIIb [34]): 1300 nM and 1400 nM and 1500 nM
Kd (FcgRIIIa F [35]): 3.7 nM and 2.9 nM
Kd (FcgRIIa R [28]): 460 nM
Kd (FcgRIIa R [36]): 240 nM and 280 nM
Kd (FcgRIIIa V [29]): 0.98 nM
Kd (FcgRIIa H [30]): 130 nM

Results, then the binder that gave them:

Kd (FcgRIa [19]): 0.036 nM
Kd (FcgRIIb [20]): 5200 nM
Kd (FcgRIIa H [21]): 170 nM
Kd (FcgRIIIa F [22]): 1.1 nM
Kd (FcgRIIa R [23]): 490 nM
Kd (FcgRIIIa V [24]): 0.19 nM
B2: H240-Kn225/H240-Hl076/L73-k0 (antibody)
chain 1: B1 chain 1 with Y234Q, M238I, D269E, D326A
chain 2: B1 chain 2 with K329M
chain 3: B1 chain 3

Kd (FcgRIa [19]): 0.13 nM
Kd (FcgRIIb [20]): 200 nM
Kd (FcgRIIa H [21]): 39 nM
Kd (FcgRIIIa F [22]): 2.1 nM
Kd (FcgRIIa R [23]): 16 nM
Kd (FcgRIIIa V [24]): 0.77 nM
B4: H240-Kn229/H240-Hl068/L73-k0 (antibody)
chain 1: B1 chain 1 with M238I
chain 2: B1 chain 2
chain 3: B1 chain 3
